Reference: patent US12466859B2, “Desmoglein 2 (DSG2) binding proteins and uses therefor” (UNIVERSITY OF WASHINGTON THROUGH ITS CENTER FOR …, priority 2013, dated 2025)
Entries after “also recorded” stand apart in the source; their conditions may differ.

B1: D261N (protein)
chain: MKVSALKEKVSALKEKVSALKEKVSALKEKVSALKEGSGGGSGGGSGGGSNSIALKNNTLWTGPKPEANCIIEYGKQNPDSKLTLILVKNGGIVNGYVTLMGASDYVNTLFKNKNVSINVELYFDATGHILPDSSSLKTDLELKYKQTADFSARGFMPSTTAYPFVLPNAGTHNENYIFGQCYYKASNGALFPLEVTVMLNKRLPDSRTSYVMTFLWSLNAGLAPETTQATLITSPFTFSYIREDD
B2: JO-1: dimeric protein that contains the wild-type Ad3 fiber knob and a self-dimerization domain (SEQ ID NO:27) (protein, listed as Homo sapiens)
chain: MKVSALKEKVSALKEKVSALKEKVSALKEKVSALKEGSGGGSGGGSGGGSNSIALKNNTLWTGPKPEANCIIEYGKQNPDSKLTLILVKNGGIVNGYVTLMGASDYVNTLFKNKNVSINVELYFDATGHILPDSSSLKTDLELKYKQTADFSARGFMPSTTAYPFVLPNAGTHNENYIFGQCYYKASDGALFPLEVTVMLNKRLPDSRTSYVMTFLWSLNAGLAPETTQATLITSPFTFSYIREDD
modifications: dimer
B3: JO-4 (protein)
chain: MKVSALKEKVSALKEKVSALKEKVSALKEKVSALKEGSGGGSGGGSGGGSNSIALKNNTLWTGPKPEANCIIEYGKQNPDSKLTLILVKNGGIVNGYVTLMGASDYVNTLFKNKNVSINVELYFDATGHILPDSSSLKTDLELKYKQTADFSARGFMPSTTAYPFVLPNAGTHNENFIFGQCYYKASDGALFPLEVTVMLNKRLPDSRTSYVMTFLWSLNAGLAPETTQATLITSPFTFSYIREDD

Columns and labels:
[1] = test system: polarized colon cancer T84 cells; test: Transepithelial electrical resistance (TEER) on polarized T84 cells; assay type: cell-based; settings: for Effect on the TEER: added for 1 hour to the apical side of transwell cultures
Description: FIG. 5A-5B. Correlation of reduced DSG2 binding with the ability to open epithelial junctions. FIG. 5A) Transepithelial electrical resistance (TEER) measured on polarized colon cancer T84 cells. Cells were cultured in transwell chambers until the TEER was constant, i.e. tight junctions had formed. A total of 5 μg of dimeric Ad3 fiber knobs in PBS was then added for 1 hour to the apical chamber. TEER was measured at the indicated time points. N=6. For time points 1.5 and 4 hours the difference between JO-1 vs D261N and N186D was significant (p<0.01). The arrows indicate the addition and removal of Ad3 fiber knobs. FIG. 5B) Enhancement of irinotecan therapy. A total of 4×10^6 A549 cells were injected subcutaneously into CB17-SCID/beige mice. Once the tumor reached a volume of ˜100 mm^3 (day 15 after implantation), the mice were injected intravenously with 2 mg/kg JO-1, E299V, N186D, or PBS, followed by an intravenous injection of irinotecan (37.5 mg/kg) one hour later. The treatment was repeated on day 25. N=5. […] The difference between “irinotecan” vs “JO-1+irinotecan” was significant (p<0.01) from day 20 on.
FIG. 9A1-9C. Analysis of dimeric Ad3 fiber knob mutants with increased affinity to DSG2. FIG. 9A1-9A2) Competition of Ad3-GFP virus infection on HeLa cells with dimeric affinity-enhanced mutant Y250F and JO-1 (dimeric wt Ad3 fiber knob). The experimental setting is as described for FIG. 3C. FIG. 9A1) percentage of GFP positive cells. FIG. 9A2) mean fluorescence intensity. N=3. The standard deviation was less than 10%. FIG. 9B1-9B2) Competition of Ad3-GFP virus infection on HeLa cells by Ad3 knob mutants with enhanced DSG2 binding but without dimerization domain. 1.5×10^5 HeLa cells were seeded into 24 well plates. Cells were incubated with the Ad3 knob mutants at the increasing concentrations for one hour at room temperature. 100 pfu/cell of Ad3GFP virus were then added and GFP expression was analyzed 18 hours later. FIG. 9B1) % of GFP+cells; FIG. 9B2) MFI. FIG. 9C) TEER on colon cancer T84 cells. The experimental setting was the same as for FIG. 5A. The TEER at 4 hours is shown. N=3.
Permeability assay. A total of 5×10^5 T84 cells were seeded in 12 mm transwell inserts (PET membrane, with 0.4 μm pore size (Corning, NY) and cultured for >14 days until transepithelial electrical resistance (TEER) was stable. Culture medium was changed every 2-3 days. The cells were exposed to DSG2 ligands (20 μg/ml) in adhesion medium (DMEM, 1% FBS, 2 mM MgCl2, 20 mM HEPES) for 15 min at room temperature and TEER was measured and calculated as described elsewhere (39).

[2] = test system: TC1-hDSG2 tumors; test: PLD therapy with repeated injection in immunocompetent mice with TC1-hDSG2 tumors; assay type: in vivo, hDSG2 transgenic mice; settings: 2 mg/kg i.v. one hour before PLD 1.5 mg/kg; 3rd and 4th cycle, serum antibodies detectable
Description: FIG. 11A-11C. Pharmacokinetics, toxicity, and immunogenicity of JO-4. FIG. 11A) Serum clearance of JO-1 and JO-4. hDSG2 transgenic mice with subcutaneous TC1-hDSG2 tumors (˜600 mm^3) were intravenously injected with JO-1 or JO-4 (2 mg/kg) and serum samples were analyzed for by ELISA. N=3. Note that the y-axis has a log scale. FIG. 11B1) Lymphocyte and FIG. 11B2) platelet counts in hDSG2/TC1-hDSG2 transgenic mice after JO-1 or JO-4 injection. N=3. FIG. 11C) Therapy studies in immunocompetent hDSG2 transgenic mice with TC1-hDSG2 tumors. When tumors reached a volume of ˜80 mm^3, JO-1 or JO-4 (2 mg/kg) or PBS was injected intravenously followed one hour later by PLD/Doxil (i.v. 1.5 mg/kg). Treatment was repeated as indicated by arrows. Tumors were then allowed to re-grow for about two weeks. From day 15 on serum anti-JO-1/J)—4 antibodies were detectable by ELISA. Two more treatment cycles were performed at day 28 and day 35. […] The difference between JO-1/PLD vs JO-4/PLD is significant from day 31 on. N=10.
A549, MDA-MB-231, and ovc316 xenograft tumors were established by injection of the corresponding tumor cells into the mammary fat pad (1:1 with Matrigel) of CB17 mice. […] Tumor volumes were measured three times a week. […]
JO-1 and JO-4 are virus-derived proteins and immunogenic. In immunocompetent mice, serum IgG antibodies against these proteins can be detected by ELISA two weeks after injection (5). […]

Molecule | Effect on the TEER [1] | Enhancing effect on PLD therapy after repeated treatment cycles [2] | TEER compared to JO-1 ([1]; dimeric affinity-enhanced mutants, TEER at 4 hours)
B1 | no effect | – | –
B2 | rapid decrease in the TEER | enhancing effect; also recorded: continued to be effective | –
B3 | – | significantly stronger; also recorded: continued to be effective | significantly higher
